Tested on: Escherichia coli TOP10
Test: shrunken log2 fold change of peptide-encoding DNA abundance (4.5 h post-induction vs induction); higher = less antimicrobial activity (less host growth inhibition)
Settings: time post-induction: 4.5 h; library: site-saturation at positions 5, 18, 19, 20
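Note: peptides expressed intracellularly from a pBAD plasmid library in pooled LB shake-flask culture, induced with 0.3% L-arabinose, DNA abundance read by NGS, three biological replicates, DESeq2 with apeglm shrinkage.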

Row | Sequence | shrunken log2 fold change
1 | RRIRFRPPRLPRPRPRPDEIPRP | -0.022
2 | RRIRFRPPRLPRPRPRPDERPRP | -0.0426
3 | RRIRFRPPRLPRPRPRPDGGPRP | -0.537
4 | RRIRFRPPRLPRPRPRPDHEPRP | 0.193
5 | RRIRFRPPRLPRPRPRPDHPPRP | -0.593
6 | RRIRFRPPRLPRPRPRPDHSPRP | -0.0664
7 | RRIRFRPPRLPRPRPRPDIMPRP | -0.06
8 | RRIRFRPPRLPRPRPRPDKMPRP | 0.0125
9 | RRIRFRPPRLPRPRPRPDKQPRP | -0.0106
10 | RRIRFRPPRLPRPRPRPDKSPRP | 0.053
11 | RRIRFRPPRLPRPRPRPDRLPRP | 0.147
12 | RRIRFRPPRLPRPRPRPDRNPRP | -0.182
13 | RRIRFRPPRLPRPRPRPDRVPRP | 0.0813
14 | RRIRFRPPRLPRPRPRPDSVPRP | -0.54
15 | RRIRFRPPRLPRPRPRPDVTPRP | -0.302
16 | RRIRFRPPRLPRPRPRPDWEPRP | -0.169
17 | RRIRFRPPRLPRPRPRPDWIPRP | -0.114
18 | RRIRFRPPRLPRPRPRPDYIPRP | 0.209
19 | RRIRFRPPRLPRPRPRPDYVPRP | -0.00174
20 | RRIRFRPPRLPRPRPRPEAFPRP | 1.82
21 | RRIRFRPPRLPRPRPRPEDRPRP | 0.045
22 | RRIRFRPPRLPRPRPRPEDYPRP | 0.0145
23 | RRIRFRPPRLPRPRPRPEFGPRP | 0.0197
24 | RRIRFRPPRLPRPRPRPEGHPRP | 0.0933
25 | RRIRFRPPRLPRPRPRPEKNPRP | -0.0204

Row | Sequence | shrunken log2 fold change
26 | RRIRFRPPRLPRPRPRPEKPPRP | -0.0143
27 | RRIRFRPPRLPRPRPRPEMIPRP | 0.169
28 | RRIRFRPPRLPRPRPRPEMYPRP | -0.00146
29 | RRIRFRPPRLPRPRPRPEPYPRP | 0.0129
30 | RRIRFRPPRLPRPRPRPEQCPRP | 0.285
31 | RRIRFRPPRLPRPRPRPERIPRP | -0.352
32 | RRIRFRPPRLPRPRPRPETGPRP | 0.0907
33 | RRIRFRPPRLPRPRPRPETQPRP | -0.0941
34 | RRIRFRPPRLPRPRPRPEYTPRP | -0.0548
35 | RRIRFRPPRLPRPRPRPEYWPRP | -0.245
36 | RRIRFRPPRLPRPRPRPFDGPRP | -0.251
37 | RRIRFRPPRLPRPRPRPFDTPRP | -0.486
38 | RRIRFRPPRLPRPRPRPFEYPRP | -0.281
39 | RRIRFRPPRLPRPRPRPFFEPRP | 0.0992
40 | RRIRFRPPRLPRPRPRPFGSPRP | -0.00247
41 | RRIRFRPPRLPRPRPRPFHRPRP | -0.0134
42 | RRIRFRPPRLPRPRPRPFHTPRP | -0.561
43 | RRIRFRPPRLPRPRPRPFIEPRP | -0.894
44 | RRIRFRPPRLPRPRPRPFKLPRP | -0.0106
45 | RRIRFRPPRLPRPRPRPFKMPRP | 1.77
46 | RRIRFRPPRLPRPRPRPFKVPRP | -0.327
47 | RRIRFRPPRLPRPRPRPFLTPRP | -0.172
48 | RRIRFRPPRLPRPRPRPFMEPRP | -0.728
49 | RRIRFRPPRLPRPRPRPFMPPRP | -0.469
50 | RRIRFRPPRLPRPRPRPFMVPRP | -0.654

Row | Sequence | shrunken log2 fold change
51 | RRIRFRPPRLPRPRPRPFNRPRP | 0.0118
52 | RRIRFRPPRLPRPRPRPFPNPRP | -0.0354
53 | RRIRFRPPRLPRPRPRPFPQPRP | -0.173
54 | RRIRFRPPRLPRPRPRPFRMPRP | -0.173
55 | RRIRFRPPRLPRPRPRPFRQPRP | -0.00049
56 | RRIRFRPPRLPRPRPRPFTCPRP | -0.271
57 | RRIRFRPPRLPRPRPRPFVRPRP | -0.0733
58 | RRIRFRPPRLPRPRPRPFWRPRP | 0.366
59 | RRIRFRPPRLPRPRPRPGAAPRP | 0.517
60 | RRIRFRPPRLPRPRPRPGCPPRP | 0.00835
61 | RRIRFRPPRLPRPRPRPGCQPRP | -0.157
62 | RRIRFRPPRLPRPRPRPGDDPRP | 0.342
63 | RRIRFRPPRLPRPRPRPGDLPRP | -0.23
64 | RRIRFRPPRLPRPRPRPGEIPRP | -0.183
65 | RRIRFRPPRLPRPRPRPGGKPRP | 0.228
66 | RRIRFRPPRLPRPRPRPGHIPRP | -0.00306
67 | RRIRFRPPRLPRPRPRPGHKPRP | 0.0531
68 | RRIRFRPPRLPRPRPRPGKEPRP | -0.166
69 | RRIRFRPPRLPRPRPRPGKIPRP | -0.024
70 | RRIRFRPPRLPRPRPRPGKNPRP | 0.0341
71 | RRIRFRPPRLPRPRPRPGKRPRP | -0.0962
72 | RRIRFRPPRLPRPRPRPGLLPRP | 0.032
73 | RRIRFRPPRLPRPRPRPGLSPRP | -0.0429
74 | RRIRFRPPRLPRPRPRPGLWPRP | 0.526
75 | RRIRFRPPRLPRPRPRPGQFPRP | -0.148

Row | Sequence | shrunken log2 fold change
76 | RRIRFRPPRLPRPRPRPGQGPRP | 0.249
77 | RRIRFRPPRLPRPRPRPGQQPRP | -0.0159
78 | RRIRFRPPRLPRPRPRPGRTPRP | 0.301
79 | RRIRFRPPRLPRPRPRPGSNPRP | -0.624
80 | RRIRFRPPRLPRPRPRPGTDPRP | -0.11
81 | RRIRFRPPRLPRPRPRPGTQPRP | -0.0219
82 | RRIRFRPPRLPRPRPRPGTVPRP | 0.0642
83 | RRIRFRPPRLPRPRPRPGVIPRP | -0.356
84 | RRIRFRPPRLPRPRPRPGYMPRP | -0.922
85 | RRIRFRPPRLPRPRPRPGYTPRP | -0.427
86 | RRIRFRPPRLPRPRPRPHAFPRP | -0.411
87 | RRIRFRPPRLPRPRPRPHAIPRP | 0.00598
88 | RRIRFRPPRLPRPRPRPHALPRP | -0.222
89 | RRIRFRPPRLPRPRPRPHCKPRP | -0.112
90 | RRIRFRPPRLPRPRPRPHCVPRP | -0.216
91 | RRIRFRPPRLPRPRPRPHCWPRP | -0.0304
92 | RRIRFRPPRLPRPRPRPHDVPRP | -0.00911
93 | RRIRFRPPRLPRPRPRPHEGPRP | 0.0417
94 | RRIRFRPPRLPRPRPRPHEHPRP | -0.135
95 | RRIRFRPPRLPRPRPRPHEYPRP | -0.264
96 | RRIRFRPPRLPRPRPRPHGWPRP | 0.309
97 | RRIRFRPPRLPRPRPRPHHAPRP | -0.291
98 | RRIRFRPPRLPRPRPRPHHNPRP | -0.754
99 | RRIRFRPPRLPRPRPRPHHSPRP | -0.883
100 | RRIRFRPPRLPRPRPRPHIFPRP | -0.021

Row | Sequence | shrunken log2 fold change
101 | RRIRFRPPRLPRPRPRPHILPRP | -0.345
102 | RRIRFRPPRLPRPRPRPHMEPRP | -0.405
103 | RRIRFRPPRLPRPRPRPHMLPRP | 0.798
104 | RRIRFRPPRLPRPRPRPHMYPRP | -1.28
105 | RRIRFRPPRLPRPRPRPHPIPRP | -0.0674
106 | RRIRFRPPRLPRPRPRPHPMPRP | -0.367
107 | RRIRFRPPRLPRPRPRPHQRPRP | -0.183
108 | RRIRFRPPRLPRPRPRPHRCPRP | -0.0295
109 | RRIRFRPPRLPRPRPRPHRKPRP | 0.306
110 | RRIRFRPPRLPRPRPRPHTAPRP | -0.337
111 | RRIRFRPPRLPRPRPRPHVAPRP | 0.119
112 | RRIRFRPPRLPRPRPRPHVEPRP | -0.00526
113 | RRIRFRPPRLPRPRPRPHVNPRP | -0.297
114 | RRIRFRPPRLPRPRPRPHYDPRP | -0.397
115 | RRIRFRPPRLPRPRPRPHYIPRP | -0.0793
116 | RRIRFRPPRLPRPRPRPHYYPRP | -0.524
117 | RRIRFRPPRLPRPRPRPIACPRP | -0.0937
118 | RRIRFRPPRLPRPRPRPIAMPRP | 0.091
119 | RRIRFRPPRLPRPRPRPIAWPRP | -0.0725
120 | RRIRFRPPRLPRPRPRPIDEPRP | 0.121
121 | RRIRFRPPRLPRPRPRPIDHPRP | -0.0746
122 | RRIRFRPPRLPRPRPRPIDQPRP | -0.296
123 | RRIRFRPPRLPRPRPRPIELPRP | -0.537
124 | RRIRFRPPRLPRPRPRPIEMPRP | -0.245
125 | RRIRFRPPRLPRPRPRPIEVPRP | 0.0653

Row | Sequence | shrunken log2 fold change
126 | RRIRFRPPRLPRPRPRPIFAPRP | 0.161
127 | RRIRFRPPRLPRPRPRPIGYPRP | -0.363
128 | RRIRFRPPRLPRPRPRPIHPPRP | -0.385
129 | RRIRFRPPRLPRPRPRPIHVPRP | -0.335
130 | RRIRFRPPRLPRPRPRPIITPRP | -0.5
131 | RRIRFRPPRLPRPRPRPIMIPRP | -0.113
132 | RRIRFRPPRLPRPRPRPIMNPRP | -0.515
133 | RRIRFRPPRLPRPRPRPIPCPRP | -0.256
134 | RRIRFRPPRLPRPRPRPIQQPRP | 0.056
135 | RRIRFRPPRLPRPRPRPIRGPRP | -0.0057
136 | RRIRFRPPRLPRPRPRPITAPRP | -0.286
137 | RRIRFRPPRLPRPRPRPITDPRP | 0.0437
138 | RRIRFRPPRLPRPRPRPITFPRP | -0.456
139 | RRIRFRPPRLPRPRPRPIVDPRP | -0.136
140 | RRIRFRPPRLPRPRPRPIYDPRP | -0.626
141 | RRIRFRPPRLPRPRPRPIYQPRP | -0.21
142 | RRIRFRPPRLPRPRPRPIYSPRP | -0.751
143 | RRIRFRPPRLPRPRPRPIYWPRP | 0.0843
144 | RRIRFRPPRLPRPRPRPKASPRP | 0.157
145 | RRIRFRPPRLPRPRPRPKDEPRP | -0.13
146 | RRIRFRPPRLPRPRPRPKFHPRP | -0.42
147 | RRIRFRPPRLPRPRPRPKFYPRP | -0.308
148 | RRIRFRPPRLPRPRPRPKGGPRP | 0.00425
149 | RRIRFRPPRLPRPRPRPKHYPRP | -0.271
150 | RRIRFRPPRLPRPRPRPKIDPRP | 0.00783

Source: the supplement of paper PMC9112550, “Optimization of the antimicrobial peptide Bac7 by deep mutational scanning” (BMC Biology, 2022)
